In doi:10.1101/2025.03.19.644215 (bioRxiv, 2025):

Target: the molecule itself
Assay: cryo-EM structure; Dmc1 2.5 uM with 0.125 uM 96-mer ssDNA in HR buffer with 1.5 mM CaCl2 and 5 mM ADP, 30°C 5 min, then 8 mM CHAPSO; helical filament in the ADP-bound state (interdigitated filaments masked to a single filament); filament formation required the ssDNA

B1: S. cerevisiae Dmc1 (natural protein)
chain: MSVTGTEIDSDTAKNILSVDELQNYGINASDLQKLKSGGIYTVNTVLSTTRRHLCKIKGLSEVKVEKIKEAAGKIIQVGFIPATVQLDIRQRVYSLSTGSKQLDSILGGGIMTMSITEVFGEFRCGKTQMSHTLCVTTQLPREMGGGEGKVAYIDTEGTFRPERIKQIAEGYELDPESCLANVSYARALNSEHQMELVEQLGEELSSGDYRLIVVDSIMANFRVDYCGRGELSERQQKLNQHLFKLNRLAEEFNVAVFLTNQVQSDPGASALFASADGRKPIGGHVLAHASATRILLRKGRGDERVAKLQDSPDMPEKECVYVIGEKGITDSSD
notes: Dmc1 meiotic recombinase, Saccharomyces cerevisiae; expressed from a plasmid encoding 6XHisDmc1; Stood in the assay as a helical filament of many protomers, assembled with a 96-nt ssDNA, ADP, Mg2+ and Ca2+; no removal of the His tag is described; also called Dmc1-ADP; source: E. coli BL21 (DE3) Rosetta2, purified (Talon resin, heparin sepharose)
Question: Does B1 bind?
Answer: Result: binds
